Measured values published in patent US20240335555A1 (BIOHAVEN THERAPEUTICS, published 2024).

Tests used:
[1] = molecular target: T1, SARS-CoV2 Spike-GFP protein on 293T cells (SARS-CoV-2, UniProt P0DTC2 14-1273); experiment: flow cytometry on 293T cells expressing Spike-GFP, % gated read-out
T1 construct: whole, on cells

[2] = molecular target: T2, SARS-CoV-2 (COVID-19) S Protein RBD, His Tag (SARS-CoV-2, UniProt P0DTC2 319-537); experiment: BLI (Octet), LCB1 binding to anchored Spike RBD
[3] = molecular target: T2, SARS-CoV-2 (COVID-19) S Protein RBD, …; experiment: ELISA, Spike RBD anchored on plate

B1: I-26 (other)
peptide: DKEEILNKIYEIMRLLDELGNAEASMRVSDLILEFMKKGDERLLEEAERLLEEVERGGSEQKLISEEDLGSGGGGSLPET
notes: also called MATE agent I-26
[1]
  IC50: 1.3 nM

B2: I-24 (designed binder)
chain: DKEEILNKIYEIMRLLDELGNAEASMRVSDLILEFMKKGDERLLEEAERLLEEVERGGSEQKLISEEDLGSGGGGSLPETGGGGSGGSSHHHHHHHHHH
notes: also called P227; LCB1
[2]
  binding result: no binding

B3: I-27 (other)
peptide: NDDELLMLVTDLVAEALLFAKDEEIKKRVFTLFELADKAYKNNDRDTLSKVVSELKELLERLQSGGSEQKLISEEDLGSGGGGSLPET
notes: also called MATE agent I-27
[3]
  EC50: 4 nM
